For the data set, the target named is Hemoglobin (Hb) (UniProt P69905;P68871 P69905:2-142,P68871:2-147). The data set is described as follows: pulldown; biotin-aptamer streptavidin bead sandwich chemiluminescence in blood, R2=0.9821. Particulars: tags: conjugated to magnetic beads; also captured from blood; chain copies: alpha2beta2 tetramer (inferred); label: biotin (blood detection assay); stem-loop (MFOLD, -9.67 kcal/mol). From the text: The detection of this embodiment is also a two-antibody assay; therefore, please refer to Example 2 for the detection process. In this embodiment, the nucleic acid sequence of SEQ ID NO: 7 with lower free energy was used as the aptamer. The aptamer was labeled by biotin and was used to replace the anti-Hb antibody in the two-antibody assay. The surface of the magnetic bead used was also conjugated with streptavidin. Upon mixing with blood, the hemoglobin-specific aptamer would bind to hemoglobin in blood. After a magnetic field was applied and the unbound substances were washed away, an acridinium ester-labeled anti-Hb antibody was added. The acridinium ester-labeled anti-Hb antibody produces chemiluminescense, thus, can be detected using luminometer.
Hemoglobin (Hb), sequence (P69905 2-142, chain 1 of 2): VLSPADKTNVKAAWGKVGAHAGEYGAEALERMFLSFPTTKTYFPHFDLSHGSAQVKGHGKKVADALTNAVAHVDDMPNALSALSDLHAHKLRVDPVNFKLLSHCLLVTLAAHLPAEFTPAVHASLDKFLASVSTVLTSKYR
Hemoglobin (Hb), sequence (P68871 2-147, chain 2 of 2): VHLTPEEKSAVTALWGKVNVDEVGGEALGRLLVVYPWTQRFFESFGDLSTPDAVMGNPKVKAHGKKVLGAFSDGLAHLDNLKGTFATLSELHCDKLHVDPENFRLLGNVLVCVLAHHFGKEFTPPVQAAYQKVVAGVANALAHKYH

B1: Hb-specific aptamer SEQ ID NO: 7 (ssDNA)
DNA: GGCAGGAAGACAAACACCAGGTGAGGGAGACGACGCGAGTGTTAGATGGTAGCTGTTGGTCTGTGGTGCTGT
Take B1: the binding result is recorded as “binds”.

Source of the values: US20150111306, “HEMOGLOBIN A1c-SPECIFIC APTAMER, HEMOGLOBIN-SPECIFIC APTAMER, AND APPLICATIONS THEREOF” (National Tsing Hua University, published 2015).
